One molecule from patent publication US12097265B2, “Cytotoxic particles for targeting P2X7 receptor” (BIOSCEPTRE (AUST) PTY LTD, priority 2016, dated 2024) can be followed below.

Data set [1] deals with 4T1-luc2 murine breast cancer cells. Put plainly: Biodistribution imaging of fluorescently labelled nanoparticles in 4T1-luc2 tumour bearing mice. Type of data set: in vivo. The method, then: The near-infrared (NIR) lipophilic fluorescent dye DiR (ThermoFisher) was incorporated into the lipid bilayer of naked nanoparticles, nanoparticles coated with HEL4 (isotype) and nanoparticles coated with variable domains for binding to anti-P2X7R (P2X7-binding domain-coated nanoparticles, or “BIL03s-coated”). Female Balb/c mice were inoculated orthotopically (4th mammary fat pad) with 4T1-luc2 murine breast cancer cells. A 50 μL dose of nanoparticles was injected intravenously at study day 0 and near-infrared (NIR) imaging was performed at 6, 12, 24, 48 and 96 […]. At termination, excised liver, spleen and tumour NIR imaging was performed and bioluminescence imaging was performed on tumour tissues.

Data set [2] relates to 4T1 murine breast tumour. Put plainly: Dosing regimen investigation: coated nanoparticles versus free gemcitabine, tumour growth. Type of data set: in vivo, mice.
In data set [3] the test system is 4T1 murine breast tumour. Put plainly: Efficacy of gemcitabine liposome nanoparticles in the 4T1 murine breast tumour model. Type of data set: in vivo, mice. To be noted: 0.2 mg gemcitabine, intravenously 3 times a week; versus HEL4-coated nanoparticles containing gemcitabine; P=0.0456. The method, then: This study aimed to determine the efficacy of P2X7-binding domain-coated nanoparticles (i.e., “BIL03s-coated”) and HEL4-coated nanoparticles to deliver the cytotoxic agent gemcitabine to tumours in the 4T1 murine breast tumour model.
Nanoparticles were administered intravenously, 3 times a week. Nanoparticles contained either 0.2 mg gemcitabine or PBS buffer (control).
Tumour volume was measured over the study period (see FIG. 10). Mice were terminated when estimated tumour volume exceeded 1000 mm^3.

B1: P2X7-binding domain-coated nanoparticles containing gemcitabine: Liposome of DOPC, oleyl-gemcitabine carbamate conjugate and Maleimido-Succinyl-PEG4000-Oleate, conjugated to an anti-P2X7R single … (conjugate)
VH: EVQLLESGGGLVQPGGSLRLSCAASGFTFRNHDMGWVRQAPGKGLEWVSAISGSGGSTYYANSVKGRFTISRDNSKNTLYLQMNSLRAEDTAVYYCAEPKPMDTEFDYRSPGTLVTVSS
In the case of B1, the “accumulation in the excised tumour” value in data set [1] (ex vivo bioluminescence imaging at 96 hr, FIG. 9, versus naked nanoparticles) is “higher accumulation in the excised tumour”. In addition, the accumulation in tumours entry in data set [1] (whole animal NIR imaging and ex vivo bioluminescence, 50 μL intravenous on day 0, versus naked or HEL4-coated control nanoparticles) was “greater accumulation in tumours”. Further, in data set [1] (whole animal NIR imaging, FIG. 7, versus non antibody-conjugated particles), the “retention in the tumour” value was “retained in the tumour much longer”. Further, the “efficacy for inhibiting tumour growth” value in data set [2] (equivalent to 0.3 mg gemcitabine, intravenously twice per week (FIG. 11), versus 0.3 mg free gemcitabine) is recorded as “comparable”. Also, the “release of cytotoxic agent” value in data set [2] (general statement) is recorded as “sustained release”. Besides, in data set [2] (general statement, versus existing cancer treatments), the toxicity result was “lower toxicity”. Besides, in data set [3], the survival entry is recorded as “prolonged survival” and the “tumour suppression (tumour volume)” value is given as “greater tumour suppression”.
